From patent publication US12441811B2, “Compositions and methods for treating serpin B13 disorders” (REGENTS OF THE UNIVERSITY OF MINNESOTA, priority 2019, dated 2025)
“Also recorded” adds a separate entry of the source.

Tests used:
[1] = system: catL; test: catL protease activity in cell extract from pancreatic tissue in vitro; assay type: biochemical; settings: mAb added to cell extract from pancreatic tissue in vitro
[2] = system: pancreatic islets and β-cells; test: Follow-up of healthy offspring with gestational exposure to anti-serpinB13 mAb; assay type: in vivo, mouse; settings: for β-cell mass per animal (islet mass): offspring
Method: The control mouse mAb (clone TIB92) was from ATCC (Manassas, VA, USA). The recombinant human control Ab (cat. No 403502) was from BioLegend (San Diego, CA). In most of the experiments, anti-serpinB13 mAb (clone B29) or control mouse mAb was injected i.p. into pregnant female mice at 50 μg for four consecutive days, starting at gestational day E10.5 (total dose of 200 μg). In the lineage tracing experiments in adult mice, B29 was injected i.p. for 7 days at 100 μg/injection during the first week after STZ treatment (total dose of 700 μg).
Preparation of the islets and single islet-cell suspensions. The adult pancreases were subjected to digestion with collagenase P and passed through the 100-μm strainers to separate the islets from debris. The blindly digested pancreatic samples were manually counted for the number of pancreatic islets under a dissecting microscope with a warm halogen light from below. The islets were defined as any visible, distinct cluster of cells with smooth edges and light- to dark-brown glowing color and diameter greater than 100 μm. The hand-picked islets were then dispersed with CellStripper (cat. no. 25-056-CI; Corning, Corning, NY). The cells were fixed and permeabilized, using the Foxp3/Transcription Factor Staining Buffer Set to permit intracellular staining.
(§1) Calculation of the islet mass. In embryos, the β-cell mass was expressed as the percentage of the area of all pancreatic sections combined, that positively stained with anti-insulin antibody. To calculate β-cell mass in adult mice, the percentage insulin-positive area was multiplied by the pancreas weight expressed in milligrams.
Estimating the number of islets and islet cells. The islets were manually counted under a dissecting microscope. To estimate the number of α and β cells, the islet cells were dispersed, intracellularly stained with antibodies to […], respectively, and their counts measured by FACS.

[3] = system: streptozotocin-induced diabetes; test: STZ-induced diabetes in adult offspring with gestational exposure to anti-serpinB13 mAb; assay type: in vivo, mouse; settings: for preserved residual β-cell mass: 4 weeks after STZ 150 mg/kg in adulthood; for preserved residual β-cell mass / diabetes / severity of the disease: prenatal exposure; for diabetes / severity of the disease: STZ injected in adulthood, vs control antibody
Text: as §1
Diabetes induction and monitoring. C57BL/6 male mice, which are susceptible to STZ-induced diabetes, were subjected to a 6-hour period of bedding removal and fasting with unlimited access to drinking water. At the end of fasting, STZ was dissolved in a freshly prepared buffer (50 mM Sodium Citrate, pH 4.5) and immediately injected i.p. at 150 mg/kg. The glucose levels in tail blood were measured at random every 7 days for 4 weeks. Alternatively, to perform the glucose tolerance test, STZ-treated C57BL/6J male mice were first fasted for 6 hours with unlimited access to drinking water, and then injected i.p. with a 10% D-(+)-glucose solution (10 μL/g body weight). A glucometer (One-Touch Ultra) was used to monitor glucose levels using tail blood collected before glucose injection, and after injection at 30-min intervals for 2 hours. For glucometer glucose readings “above 600 mg/dL”, the data were extrapolated to the value of 700 mg/dL for algebraic statistical purposes only.

[4] = system: Ngn3+ cells; test: Genetic lineage tracing of Ngn3+ cells; assay type: in vivo, mouse
Method: FIGS. 18A-18C. Genetic tracing of Ngn3^+ cells in the pancreas of healthy and diabetic adult mice treated with anti-serpinB13 mAb. (A) The protocol of mice treatment with streptozotocin (STZ), tamoxifen (TAM), and anti-serpinB13 mAb (or control Ab). Eight-week old Ngn3Cre^ERTR26^YFP mice were induced into diabetes with STZ (150 mg/kg) and genetically labelled with YFP to mark Ngn3^+ cells, using TAM one day after injection of STZ, and an additional three times every other day thereafter. The antibodies were injected every day for 7 days at 100 μg/injection during the first week after STZ treatment. (B) Quantitative analysis by IF microscopy of YFP^+ cells expressing insulin at two weeks following induction of diabetes with STZ. […] (C) Representative microscopic IF images of YFP^+insulin^+ cells depicted in (B). Data are presented as the mean±SEM. Ordinary one-way ANOVA with Sidak test. Scale bars, 10 μm. NS, not significant. αB13, anti-serpinB13 mouse mAb.
Linage tracing. In the developmental studies, the Rosa26^EYFP females were initially set up for overnight breeding with NgnCre^ERT males and the following morning examined for the presence of a vaginal plug to indicate embryonic day E0.5. On embryonic day E10.5, E11.5, E12.5 and 13.5, anti-serpinB13 mAb (or control Ab) was injected i.p. at a dose of 50 μg per animal per day (total dose of 200 μg). […]

[5] = system: pancreatic islets; settings: cited from earlier work
[6] = 8-week old offspring, prenatal exposure

B1: B29: mouse monoclonal antibody to serpin B13, clone B29; heavy chain SEQ ID NO:14, kappa light chain SEQ ID NO:16 (antibody, V domains shown)
VH: QIQLVQSGPELKKPGETVKISCKASGYTFTTYGMSWVKQAPGKGLKWMGWINTYSGMPTYADDFKGRFAFSLETSATTAYLQINNLKNEDTATYFCARPLLGLDYWGQGTTLTVSS
VL: DIVMTQTPLSLSVTIGQPASISCKSSQSLLHSDGKTFLNWFLQRPGQSPKLLIYLVSKLESGIPDRFSGSGSGTDFTLKISRVEVEDLGVYYCLQHTHFPLTFGAGTKLEIK
In the case of B1, the “protease activity of catL” value [1] is reported as “dose-dependently enhanced”, the “number of pancreatic islets” value [2, 6] is reported as “significant increase” and the “total β-cell number” value [2, 6] is reported as “significant increase”. For the same molecule, the α-cell population [2, 6] was “significantly increased”, the “total pancreas and body weight” value ([2]; at birth and in adulthood, vs control group) was “remained the same” and the “β-cell mass per animal (islet mass)” value ([2]; prenatal exposure, listed as anti-serpinB13 antibody) was “increased”. For the same molecule, the “β-cell mass per animal (islet mass)” value ([2]; prenatal exposure, listed as anti-serpinB13 mAb) was “significant increase”, the “β-cell mass per animal (islet mass)” value ([2]; prenatal exposure, listed as mAb) was “significant expansion” and the “loss of body weight” value ([3]; 1-4 weeks after STZ) was “prevented”. The “serum creatinine as a measure of renal function” value ([3]; 4 weeks after STZ) was “improved”, the “preserved residual β-cell mass” value ([3]; listed as anti-serpinB13 mAb) was “over two-fold greater” and the “preserved residual β-cell mass” value ([3]; listed as serpinB13 mAb) was “higher”. The “diabetes / severity of the disease” value [3] was “helped to prevent severe diabetes”, the “diabetes / severity of the disease” value ([3]; listed as anti-serpinB13 antibody) was “improved outcomes” and the “diabetes / severity of the disease” value ([3]; listed as anti-serpinB13 mAb) was “either completely protected against diabetes (FIG. 24A-24B), or ameliorated the severity of the disease”. For the same molecule, the “diabetes / severity of the disease” value ([3]; listed as mAb) was “improved resistance”, the “diabetes / severity of the disease” value ([3]; listed as serpinB13 mAb) was “reduced severity of disease” and the blood glucose control ([3]; ipGTT at 2 weeks, random glucose 1-4 weeks after STZ) was “improved”. The “transition from Ngn3 to insulin expression (YFP+insulin+ cells)” value ([4]; adult mice with STZ-induced pancreatic damage, 100 μg/injection for 7 days, listed as anti-serpinB13 mAb) was “also observed; also recorded: increase”, the “conversion of Ngn3+ cells to insulin-positive status” value ([4]; injection during gestation, YFP+insulin+ cells in embryos) was “enhanced conversion” and the recovery from diabetes ([5]; coadministration with a suboptimal dose of anti-CD3 mAb) was “accelerated”. The Reg gene expression ([5]; injection) was “enhanced”, the beta cell mass ([5]; injection) was “increase” and the beta cell proliferation ([5]; injection) was “enhanced”. For the same molecule, the “generation of pancreatic islets” value ([5]; injection) was ~80 pancreatic islets per animal and the islet inflammation ([5]; mice, mAb alone) was “decreased”.
